Publication PMC11512059 (Nature Communications, 2024)

B1: human connexin 36 gap junction channel, wild type, in lipid nanodiscs containing brain lipids (Cx36_(Nano-BL)-WT) (natural protein, UniProt Q9UKL4 1-321, looked up)
chain: MGEWTILERLLEAAVQQHSTMIGRILLTVVVIFRILIVAIVGETVYDDEQTMFVCNTLQPGCNQACYDRAFPISHIRYWVFQIIMVCTPSLCFITYSVHQSAKQRERRYSTVFLALDRDPPESIGGPGGTGGGGSGGGKREDKKLQNAIVNGVLQNTENTSKETEPDCLEVKELTPHPSGLRTASKSKLRRQEGISRFYIIQVVFRNALEIGFLVGQYFLYGFSVPGLYECNRYPCIKEVECYVSRPTEKTVFLVFMFAVSGICVVLNLAELNHLGWRKIKLAVRGAQAKRKSIYEIRNKDLPRVSVPNFGRTQSSDSAYV
B2: human connexin 36 Ala14 deletion variant gap junction channel in lipid nanodiscs containing brain lipids (Cx36_(Nano-BL)-∆A14) (natural protein, UniProt Q9UKL4 1-321, looked up)
chain: MGEWTILERLLEAVQQHSTMIGRILLTVVVIFRILIVAIVGETVYDDEQTMFVCNTLQPGCNQACYDRAFPISHIRYWVFQIIMVCTPSLCFITYSVHQSAKQRERRYSTVFLALDRDPPESIGGPGGTGGGGSGGGKREDKKLQNAIVNGVLQNTENTSKETEPDCLEVKELTPHPSGLRTASKSKLRRQEGISRFYIIQVVFRNALEIGFLVGQYFLYGFSVPGLYECNRYPCIKEVECYVSRPTEKTVFLVFMFAVSGICVVLNLAELNHLGWRKIKLAVRGAQAKRKSIYEIRNKDLPRVSVPNFGRTQSSDSAYV

Target: the molecule itself
Assay: cryo-EM structure

Row | Protein | binding result
1 | B1 | binds
2 | B2 | binds
